Test [1] concerns the target T1, recombinant human PD-1 dimer expressed with a C-terminal mouse IgG2a Fc tag (human).
T1 construct: also called hPD-1-mFc; human PD-1-mFc
The test is described as follows: competition ELISA: blocking 1.5 nM hPD-1-mFc binding to coated hPD-L1-hFc; end tied to H4H9057P2 by Table 12 (below theoretical bottom 0.75 nM). (In an ELISA, binding on a coated surface is turned into a signal by an enzyme label.)

Test [2] addresses T2, recombinant cynomolgus monkey PD-1 expressed with a C-terminal myc-myc-hexahistidine tag (cynomolgus monkey (Macaca fascicularis)).
T2 construct: Monomeric reagent; also called MfPD-1-MMH
T2 chain: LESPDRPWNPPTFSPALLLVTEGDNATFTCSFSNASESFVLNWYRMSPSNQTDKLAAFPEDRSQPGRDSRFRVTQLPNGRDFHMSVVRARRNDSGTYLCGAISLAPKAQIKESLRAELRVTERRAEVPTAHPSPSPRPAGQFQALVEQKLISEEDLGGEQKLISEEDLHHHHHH
As to the kind of experiment: SPR (Biacore), MfPD-1-MMH, 25 C; end of range tied to H4H9057P2 by Table 8.

Test [3] addresses T3, recombinant human PD-1 expressed with a C-terminal myc-myc-hexahistidine tag (human).
T3 construct: also called hPD-1-MMH; human PD-1-MMH
The test is described as follows: SPR (Biacore), mAb captured, hPD-1-MMH injected, 25 C.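 Further: rate constants obtained by fitting sensorgrams to a 1:1 binding model, KD derived as kd/ka and half-life as ln2/(60·kd) in minutes.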 A general note: SPR reads the build-up and loss of mass on a sensor chip optically.

Test [4] addresses T4, monkey PD-1 with mFc (monkey (MfPD-1)).
T4 construct: also called monkey PD-1-mFc; monkey PD-1 dimer
T4 chain: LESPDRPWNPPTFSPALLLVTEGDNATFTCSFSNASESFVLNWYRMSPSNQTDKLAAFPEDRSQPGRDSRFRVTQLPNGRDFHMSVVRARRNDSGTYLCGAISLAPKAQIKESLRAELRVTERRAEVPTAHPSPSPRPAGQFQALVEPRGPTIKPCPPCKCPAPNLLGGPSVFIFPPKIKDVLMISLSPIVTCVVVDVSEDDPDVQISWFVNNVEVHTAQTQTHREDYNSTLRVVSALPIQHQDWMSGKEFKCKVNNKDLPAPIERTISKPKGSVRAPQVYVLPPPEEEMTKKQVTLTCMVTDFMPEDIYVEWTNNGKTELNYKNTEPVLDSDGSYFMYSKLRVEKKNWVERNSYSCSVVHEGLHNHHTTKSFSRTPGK
As to the kind of experiment: SPR (Biacore), monkey PD-1-mFc, 37 C; end of range tied to H4xH9008P by Table 11 (kd fixed at 1.00E-05).

Test [5] concerns the target T3, recombinant human PD-1 expressed with a …. The test is described as follows: SPR (Biacore), hPD-1-MMH, 37 C; end of range tied to H2aM7796N by Table 5.
Test [6] concerns the target T5, dimeric biotinylated human PD-1 protein, human PD-1 extracellular domain with a C-terminal human Fc tag (human, biotinylated (sites not given)).
T5 construct: also called biot-hPD-1-hFc
The test is described as follows: competition ELISA: blocking 200 pM biot-hPD-1-hFc binding to coated hPD-L1-mFc; end tied to H2aM7796N (and H4xH9008P) by Table 13.

Test [7] addresses T6, full length human PD-1 on HEK293 cells (HEK293/hPD-1) (human, UniProt Q15116 25-288).
T6 construct: also called human PD-1 expressing cells
As to the kind of experiment: FACS, dose titration on HEK293/hPD-1 cells; end tied to H2aM7796N by Table 21. On the technique in general: In flow cytometry, cells or beads pass a laser one at a time.

In test [8] the target is T2, recombinant cynomolgus monkey PD-1 …. The test is described as follows: SPR (Biacore), MfPD-1-MMH, 37 C; end of range tied to H4xH9045P by Table 9.
Test [9] has as its target PD-1 chimera: extracellular domain of human PD-1 with trans-membrane and cytoplasmic domains of human CD300a, … (human, UniProt Q9UGN4 181-299, limits assumed). The test is described as follows: cell-based or functional assay.
Test [10] has as its target T1, recombinant human PD-1 dimer expressed …. As to the kind of experiment: competition ELISA: blocking 100 pM hPD-1-mFc binding to coated hPD-L2-hFc; end tied to H2aM7798N by Table 14.
Test [11] has as its target T3, recombinant human PD-1 expressed with a …. The test is described as follows: SPR (Biacore), hPD-1-MMH, 37 C; end of range tied to H2aM7798N by Table 5.
Test [12] has as its target T7, human PD-1 dimer (human PD-1-mFc or human PD-1-hFc) (human, UniProt Q15116 25-170).
T7 construct: also called hPD-1 dimer proteins
As to the kind of experiment: SPR (Biacore), hPD-1 dimer (mFc or hFc), 25 C; end of range tied to H2aM7798N by Table 6.

Test [13] has as its target T2, recombinant cynomolgus monkey PD-1 …. The test is described as follows: SPR (Biacore), MfPD-1-MMH, 37 C; end of range tied to H2aM7798N by Table 9.
The target of test [14] is T4, monkey PD-1 with mFc. As to the kind of experiment: SPR (Biacore), monkey PD-1-mFc, 25 C; end of range tied to H4H7798N by Table 10.
For test [15], the target named is T6, full length human PD-1 on HEK293 cells …. The test is described as follows: FACS, dose titration on HEK293/hPD-1 cells; end tied to H4H7798N by Table 21.
Test [16] has as its target T1, recombinant human PD-1 dimer expressed …. As to the kind of experiment: competition ELISA: blocking 1.5 nM hPD-1-mFc binding to coated hPD-L1-hFc; end tied to H4xH9048P2 by Table 12.
For test [17], the target named is T5, dimeric biotinylated human PD-1 …. The test is described as follows: competition ELISA: blocking 200 pM biot-hPD-1-hFc binding to coated hPD-L1-mFc; end tied to H1M7799N by Table 13 (below theoretical bottom 100 pM).
Test [18] has as its target T6, full length human PD-1 on HEK293 cells …. The test is described as follows: FACS, dose titration on HEK293/hPD-1 cells; end tied to H1M7799N by Table 20.
Test [19] deals with T4, monkey PD-1 with mFc. As to the kind of experiment: SPR (Biacore), monkey PD-1-mFc, 37 C; end of range tied to H4H9068P2 by Table 11.
In test [20] the target is T4, monkey PD-1 with mFc. The test is described as follows: SPR (Biacore), monkey PD-1-mFc, 25 C; end of range tied to H4H9068P2 by Table 10.

This note sets out measurements from patent publication US20150203579A1 (Regeneron, published 2015).

Usually IC50 stands for the concentration at which inhibition is half-maximal. For orientation: Kd means the concentration at which binding is half-saturated. Broadly, the koff is the first-order rate constant of dissociation. As a reminder, the kon is the rate constant with which the complex forms. Broadly, the t½ is the time needed for the level to fall by half in the phase considered. As a reminder, the EC50 is the concentration giving half of the maximal effect.

B1: H4H9057P2 (antibody, human IgG4, V domains shown)
VH: EVQLVESGGGLVQSGRSLRLSCAASGFTFDDYAMHWVRQPPGKGLEWVSGINWNRGRTGYADSVKGRFTISRDNAKNSLYLQMNDLRVEDTALYYCAKAEQWLDEGYFDYWGQGTLVTVSS
VL: not shown
notes: Human IgG4 Fc (H4H prefix)
Regarding B1, in test [1], the IC50 was 0.19 nM. Moreover, in [2], the Kd worked out at 551 nM. Also, in test [3], the Kd amounted to 291 nM, the koff amounted to 0.0134 s⁻¹, the kon amounted to 46000 M⁻¹ s⁻¹ and the t½ was found to be 0.9 min.

B2: H4xH9008P (antibody, human IgG4, V domains shown)
VH: EVQLVESGGGLVRPGGSLRLSCAASGFTFSTYAMAWVRQTPGKGLEGVSAIGGSGDSTYYVDSVKGRFTISRDNSKSTLFLQMNSLRAEDTAVYYCVKVRNYDGSFDIWGQGTMVTVSS
VL: not shown
notes: H4xH: modified human IgG4 Fc
In the test with monkey PD-1 with mFc [4], B2 displayed a Kd of less than 0.049 nM. In [3], the dissociation constant Kd stood at 31 nM and the t½ turned out to be 8.7 min.

B3: H2aM7796N (antibody, mouse IgG2a, V domains shown)
VH: QVQLVESGGGVVQPGRSLRLSCAASGFTFSSYGMHWVRQAPGKGLEWVAIIWSDGDSEYNLDSVKGRFTISRDNSKNTLYLQMNSLRVEDSAVYYCARDRDLEDIWGQGTMVTVSS
VL: DIQMTQSPSSLSASVGDRVTITCRASQGIRNDLGWYQQKPGKAPKRLIYAASNLQSGVPSRFSGSGSGTEFTLTISSLQPEDFATYYCLQHNSYPLTFGGGTKVEIK
notes: Human variable domains, mouse IgG2a Fc; also called H2M7796N
With B3, the dissociation constant (Kd) in test [5] was 1510 nM. The molecule also gave an IC50 in test [6] of 1.3 nM. Moreover, the EC50 in test [7] is 4.81 nM. Moreover, in test [3], the Kd is 286 nM, the koff is 0.00193 s⁻¹, the kon is 6730 M⁻¹ s⁻¹ and the t½ worked out at 6 min.

B4: H4xH9045P (antibody, human IgG4, V domains shown)
VH: EVQLVESGGGLVQPGRSLRLSCAASGFTFDDYDMHWVRQAPGKGLEWVSGSGWNRGSLGYADSVKGRFTISRDNAKKSLYLQMNSVRVEDTALYYCAKGFVVVSAAYFDYWGQGTLVTVSS
VL: not shown
notes: H4xH: modified human IgG4 Fc; also called H4xH9045P2
As for B4, in [8], the Kd turned out to be 7540 nM. Also, in test [3], the Kd amounted to 74.6 nM, the koff amounted to 0.00403 s⁻¹, the on-rate (kon) is 54000 M⁻¹ s⁻¹ and the t½ stood at 2.9 min.

B5: H2aM7798N (antibody, mouse IgG2a, V domains shown)
VH: EVQLLESGGVLVQPGGSLRLSCAASGFTFSNFGMTWVRQAPGKGLEWVSGISGGGRDTYFADSVKGRFTISRDNSKNTLYLQMNSLKGEDTAVYYCVKWGNIYFDYWGQGTLVTVSS
VL: DIQMTQSPSSLSASVGDSITITCRASLSINTFLNWYQQKPGKAPNLLIYAASSLHGGVPSRFSGSGSGTDFTLTIRTLQPEDFATYYCQQSSNTPFTFGPGTVVDFR
notes: Human variable domains, mouse IgG2a Fc; also called H2M7798N
With B5, the “Emax, AP1-Luc signal at 100 nM antibody (% of signal without anti-PD-1 antibody)” value in [9] turned out to be 239%. Moreover, the IC50 in [10] came to 0.13 nM. The Kd turned out to be 3.79 nM in test [11], 0.0655 nM in [12], 7 nM in test [13] and 2.31 nM in test [3]. Besides, the off-rate (koff) in test [3] was found to be 0.000306 s⁻¹. Besides, the kon in test [3] worked out at 132000 M⁻¹ s⁻¹. For the same molecule, the t½ in test [3] was 38 min.

B6: H4H7798N (antibody, human IgG4 S228P, kappa, V domains shown)
VH: EVQLLESGGVLVQPGGSLRLSCAASGFTFSNFGMTWVRQAPGKGLEWVSGISGGGRDTYFADSVKGRFTISRDNSKNTLYLQMNSLKGEDTAVYYCVKWGNIYFDYWGQGTLVTVSS
VL: DIQMTQSPSSLSASVGDSITITCRASLSINTFLNWYQQKPGKAPNLLIYAASSLHGGVPSRFSGSGSGTDFTLTIRTLQPEDFATYYCQQSSNTPFTFGPGTVVDFRR
Turning to B6, the “Emax, AP1-Luc signal at 100 nM antibody (% of signal without anti-PD-1 antibody)” value in test [9] stood at 343%. In the test with monkey PD-1 with mFc [14], this molecule came in with a Kd of 0.137 nM. In test [15], this molecule displayed an EC50 of 0.509 nM. Further, in test [3], the Kd worked out at 3.01 nM, the koff came out at 0.000443 s⁻¹, the kon worked out at 147000 M⁻¹ s⁻¹ and the t½ is 26 min.

B7: H4xH9048P2 (antibody, human IgG4, V domains shown)
VH: QVQLVQSGAEVKRPGSSVKVSCKVSGVTFRNFAIIWVRQAPGQGLEWMGGIIPFFSAANYAQSFQGRVTITPDESTSTAFMELASLRSEDTAVYYCAREGERGHTYGFDYWGQGTLVTVSS
VL: not shown
notes: H4xH: modified human IgG4 Fc
As to B7, the IC50 in test [16] is 3.3 nM. In addition, in [3], the dissociation constant (Kd) amounted to 8.95 nM, the koff amounted to 0.00123 s⁻¹, the kon is 137000 M⁻¹ s⁻¹ and the t½ was found to be 9.4 min.

B8: H1M7799N (antibody, mouse IgG1, V domains shown)
VH: EVQLVESGGGLVQPGGSLRLSCAASGFTVSNNYMSWVRQAPGKGLEWVSVIYSGGFTYYTDSVKGRFTISRHNSKNTLYLQMNSLRAEDTAVYYCARYYYDTSDYWTFFDYWGQGTLVTVSS
VL: EIVMTQSPATLSVSPGERATLSCRASQSVSSNLAWYQQKPGQAPRLLIYGASTRATGIPARFSGSGSGTEFTLTISSLQSGDFAVYYCQQYNNWPLTFGGGTKVEIN
notes: Human variable domains, mouse IgG1 Fc
As for B8, the IC50 in test [17] was found to be 0.059 nM. In test [18], this molecule yielded a concentration for a half-maximal effect (EC50) of 0.0332 nM. Besides, in test [3], the Kd came out at 244 nM, the off-rate (koff) came out at 0.0123 s⁻¹, the kon was determined as 50400 M⁻¹ s⁻¹ and the t½ worked out at 0.9 min.

B9: H4H9068P2 (antibody, human IgG4, V domains shown)
VH: EVQLVESGGGLVQRGGSLRLSCAASGFSFSSYAMNWVRQAPGKGLEWVSTISDSGGSTYYADSVKGRFTISRDNSKNTLSLQMNSLRAEDTAVYYCAKDQGGSYPYYFHYWGQGTLVTVSS
VL: not shown
notes: Human IgG4 Fc (H4H prefix)
For B9, the Kd with monkey PD-1 with mFc [19] was found to be 86.3 nM; in the test with monkey PD-1 with mFc [20], 54.2 nM.
